According to patent US20260008856A1, “METHODS OF TREATING DISEASE USING ANTI-IL1RAP ANTIBODIES AND ANTIBODY DRUG CONJUGATES” (Bluefin Biomedicine, Inc., priority 2022, published 2026):

Columns and labels:
[1] = test system: IL-1β signaling; test: IL-1 signaling reporter cell assay (HEK-Blue IL-1β cells), IL-1β; format: cell-based
Method: (§1) HEK-Blue IL-1β cells (Invivogen, CA) were harvested and plated in technical duplicates at a density of 50,000 cells per well in a 96-well plate. IL1RAP antibodies, or a corresponding human IgG1 control antibody was added to the wells in a concentration range of […]. After incubating cells with antibodies for 30 minutes, IL-1β was added to a final concentration of 0.5 ng/ml, and the plate was incubated overnight. To examine whether any of the antibodies were able to induce IL-1R activation in the absence of IL-1β, samples were incubated with 10 μg/mL antibody without addition of the ligand. The following day, substrate was added to the supernatants, and samples were analyzed for absorbance at 620 nm.

[2] = test system: IL-1α signaling; test: IL-1 signaling reporter cell assay, IL-1α; format: cell-based; conditions: serial dilution of antibody
Method: as §1
In addition, serial dilution of IL1RAP antibodies was performed to determine EC50 against IL-1β and IL-1α (FIGS. 6B and 6C). Many of these antibodies, including 37E10_15B5 and 44E5_15C5 can block IL-1β and IL-1α signaling with subnanomolar EC50.

[3] = target: T1, recombinant human IL1RAP (Homo sapiens, UniProt Q9NPH3); test: Binding competition binning on Octet; conditions: Protein A biosensors
T1 construct: MBP-IL1RAP(S21-T367)-; 8xHis (C); made in house; host or cells: CHO (ExpiCHO transient expression)
Procedure, shortened: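 Protein A biosensors loaded with first antibody (10 ug/mL, 5 min), blocked with irrelevant antibody (100 ug/mL, 5 min). Then exposed to recombinant human IL1RAP (1 min) and a second antibody (1 min). Octet interferometry signal increase indicates non-competing pairs; antibodies assigned to bins.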

[4] = test system: IL-33 signaling; test: IL-33 signaling reporter cell assay (HEK-Blue IL-33 cells); format: cell-based; conditions: antibody 1-10 μg/ml, IL-33 0.5 ng/ml
Method: FIGS. 7A and 7B show blockage of IL-33 signaling by anti-IL1RAP antibodies. HEK-Blue IL-33 cells (Invivogen, CA) were harvested and plated in technical duplicates at a density of 50,000 cells per well in a 96-well plate. Antibodies, or a corresponding human IgG1 control antibody, was added to the wells in a serial dilution starting at 10 μg/ml (FIG. 7A), or a concentration of 1 and 10 μg/ml (FIG. 7B). After incubating cells with antibodies for 30 minutes, IL-33 was added to a final concentration of 0.5 ng/ml, and the plate was incubated overnight. 24 hours later, substrate was added to the supernatants, and samples were analyzed for absorbance at 620 nm. CBIgG1 (anti-hen egg lysozyme antibody, CrownBio™) was included as a negative control.
as §1, with “IL-33” for “IL-1β”, “plate.” for “plate. IL1RAP”, “ST2” for “IL-1R”, “IL-33,” for “IL-1β,”

[5] = test system: H69; test: Flow cytometry binding to endogenous cell line H69; format: cell-based; set-up: key: (−): No binding; (+): Weak binding; (++): Moderate binding; (+++): Strong binding; conditions: primary antibody 1 ug/ml
Method: Staining for flow cytometry was performed in 1× cold PBS with 0.5% BSA. Primary antibodies (1 ug/ml) were incubated with live cells on ice for 30 minutes, after a brief wash, cells were incubated with Alexa Fluro® 488-conjugated anti-human IgG secondary antibody @1:1000 (709-546-149, Jackson ImmunoResearch). Acquisition of the data was performed on a MACSQuant® Flow Cytometers (Miltenyi Biotec) and analyzed with FlowJo software.

[6] = test system: normal human dermal fibroblasts (NHDF); test: IL-6 and IL-8 production in NHDF stimulated with cytokine combo incl. IL-17A; format: cell-based; conditions: cytokine combo IL-1α/β, IL-36α/β/γ, antibodies 0-20 ug/ml, BFB759 0.5 ug/ml in combination
Method: Human NHDF cells were plated on 96-well, flat-bottom plates at 4,000 cells/well. […] For combination therapy, 0.5 ug/ml BFB759 was mixed with Secukinumab or Isotype control antibody at increasing concentrations (0-20 ug/ml, 5-fold dilution) and incubated with cells in duplicate for 45 minutes, prior to the addition of cytokine combo. The plates were then incubated overnight at 37° C., 5% CO2. 24 hours after treatment, supernatants were transferred and assayed for IL-6 and IL-8, as per manufacture's protocol (R&D Systems; Human IL-6 DuoSet ELISA, Human IL-8/CXCL8 DuoSet ELISA). The raw assay data were analyzed using GraphPad Prism 9 software to perform a non-linear regression.

B1: 37E10_15B5: human anti-IL1RAP antibody BFB759 (i.e., 37E10_15B5), VH SEQ ID NO: 64, VL SEQ ID NO: 68 (antibody, V domains shown)
VH: QVQLVESGGGVVQPGRSLRLSCAASGFTFRSHGMHWVRQAPGKGLEWVAVIWYDGSSEYYADSVKGRFTISRDNSKNTLYLQMNSLRAEDTAVYYCARENVYGSGWFFDYWGQGTLVTVSS
VL: EIVMTQSPATLSVSPGERASLSCRASQSVGSNLAWYQQRPGQAPRLLIFGASTRATGIPARFSGSRSGTEFTLTISSLQSEDFALYYCQQYNNWPPWTFGQGTKLEIK
How did the “inhibition of IL1R1 / IL-1 signaling” value ([1]; HEK-Blue IL-1β cells, antibody 1-10 pg/ml, IL-1β 0.5 ng/ml) turn out when B1 was run?
The value was “potent inhibition”.

What about the “EC50 against IL-1β” value ([1]; serial dilution of antibody, reporter assay) of the same molecule?
Its value is “subnanomolar”.

What about the “EC50 against IL-1α” value [2] of the same molecule?
Its value is “subnanomolar”.

What about the “competition for binding, bin (2)” value [3] of the same molecule?
Its value is “competed with each other”.

And the “inhibition of IL-33 signaling” value [4]?
The value was “partially inhibit”.

What about the “binding to H69 by flow cytometry” value [5] of the same molecule?
The value was “(−)”.

What about the IL-6 production [6] of the same molecule?
The IL-6 production was “dose-dependent decrease”.

What about the IL-8 production [6] of the same molecule?
The IL-8 production was “dose-dependent decrease”.
